Experiments:
Experiment in all cases: ELISA, biotinylated IgG1-TM on coated ECD
[1] = molecular target: T1, extracellular domain of human B7-H2 (R&D Systems, 165-B7) (human, UniProt O75144 19-256)
T1 construct: extracellular domain; Bought
T1 sequence (looked up): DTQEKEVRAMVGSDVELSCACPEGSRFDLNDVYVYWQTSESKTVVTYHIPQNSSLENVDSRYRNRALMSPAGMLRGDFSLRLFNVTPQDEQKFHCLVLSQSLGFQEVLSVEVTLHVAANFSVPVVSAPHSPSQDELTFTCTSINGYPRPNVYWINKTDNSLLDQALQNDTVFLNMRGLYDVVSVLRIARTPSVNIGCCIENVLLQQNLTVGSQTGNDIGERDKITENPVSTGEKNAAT
Protocol: (§1) ELISAs were performed to determine the cross-reactivity of the anti-B7-H1 IgG1-TM antibodies for other immune co-modulatory molecules. […] Murine cross reactivity was also investigated by coating the ECD of murine B7-H1 (R&D Systems, 1019-B7). Biotinylated anti-B7-H1 IgG1-TM diluted at 100 nM in PBS containing 3% dried milk powder, were incubated at room temperature for 2 h to allow binding. Bound biotinylated IgGs were detected with europium N1-labelled streptavidin (Perkin Elmer, 1244-360) at 0.2 ug/mL. […] Primary antibodies were incubated at 5 ug/mL in PBS containing 3% dried milk powder for 2 h at room temperature. Detection was carried out by incubating the secondary antibody anti-mouse IgG Peroxidase conjugate (Sigma, A2554) or anti-rat IgG Peroxidase conjugate (Sigma, A5795) diluted 1:5000 in PBS containing 3% dried milk powder for 1 h at room temperature and subsequent addition of TMB (Sigma, T0440). […] Non-specific binding was determined using wells coated with the IgG1 isotype control at 5 ug/mL. Cross reactivities were calculated at a percent of the specific binding to the antigen relative to human B7-H1.

[2] = molecular target: T2, human PD-1/Fc protein (R&D Systems, catalog #1086-PD) (human, UniProt Q15116 25-170)
T2 construct: extracellular domain; Bought; not shown: Fc portion
T2 sequence (Q15116 25-170): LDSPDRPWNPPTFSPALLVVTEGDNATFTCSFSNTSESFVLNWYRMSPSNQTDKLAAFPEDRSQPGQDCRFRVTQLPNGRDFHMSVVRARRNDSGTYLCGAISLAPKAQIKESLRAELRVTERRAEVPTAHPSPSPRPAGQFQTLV
Protocol: as §1

[3] = molecular target: T3, extracellular domain of human PD-L2 (R&D Systems, 1224-PL) (human, UniProt Q9BQ51 20-220)
T3 construct: extracellular domain; Bought
T3 sequence (looked up): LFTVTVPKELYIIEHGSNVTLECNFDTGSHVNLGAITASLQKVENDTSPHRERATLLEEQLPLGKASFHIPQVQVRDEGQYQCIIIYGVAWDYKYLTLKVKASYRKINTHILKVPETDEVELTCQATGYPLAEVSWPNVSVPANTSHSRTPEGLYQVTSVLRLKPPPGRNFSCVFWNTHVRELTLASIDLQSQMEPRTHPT
Protocol: as §1

[4] = molecular target: T4, extracellular domain of human CD28 (R&D Systems, 342-CD) (human, UniProt P10747 19-152)
T4 construct: extracellular domain; Bought
T4 sequence (P10747 19-152): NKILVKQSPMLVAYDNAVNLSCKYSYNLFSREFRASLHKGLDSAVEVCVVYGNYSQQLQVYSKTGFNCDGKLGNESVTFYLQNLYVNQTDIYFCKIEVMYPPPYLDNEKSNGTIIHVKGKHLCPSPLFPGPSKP
Protocol: as §1

[5] = molecular target: T5, extracellular domain of human CTLA-4 (R&D Systems, 325-CT) (human, UniProt P16410 36-161)
T5 construct: extracellular domain; Bought
T5 sequence (looked up): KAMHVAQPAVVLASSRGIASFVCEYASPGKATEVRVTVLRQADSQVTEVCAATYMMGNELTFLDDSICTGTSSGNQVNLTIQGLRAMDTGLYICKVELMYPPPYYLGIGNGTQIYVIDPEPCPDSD
Protocol: as §1

binding result [1]: no binding (tested: 100 nM)
binding result [2]: no binding (tested: 100 nM)
binding result [3]: no binding (tested: 100 nM)
binding result [4]: no binding (tested: 100 nM)
binding result [5]: no binding (tested: 100 nM)
B1: 2.7A4OPT (antibody, V domains shown)
VH: EVQLVESGGGLVKPGGSLRLSCAASGFTFSTYSMNWVRQAPGKGLEWVSSISSSGDYIYYADSVKGRFTISRDNAKNSLYLQMNSLRAEDTAVYYCARDLVTSMVAFDYWGQGTLVTVSS
VL: SYELTQPPSVSVSPGQTARITCSGDALPQKYVFWYQQKSGQAPVLVIYEDSKRPSGIPERFSGSSSGTMATLTISGAQVEDEADYYCYSTDRSGNHRVFGGGTKLTVL
notes: Germlined variable domains; human IgG1-TM (L234F, L235E, P331S), lambda; also called 2.7A4OPT IgG1-TM
